In patent publication US20140087995A1 (published 2014):
Numbered stars: 1 amine (or outer) side, 2 acyl side, 3 side chain; on linkers, the order of the positions; unused ones are H or OH. Bridge positions count the residues as written; N and C are the ends. Side chains are listed from the residue outwards. Ends that are not written are not given here. * marks the point of attachment. C20 diacid = O=C(O)CCCCCCCCCCCCCCCCCCC(=O)*; γGlu = O=C(O)[C@H](CCC(=O)[*:2])N[*:1]; AEEA = NCCOCCOCC(=O)O

T1: human calcitonin receptor (human, UniProt P30988 25-474)
T1 construct: whole, on cells; Assay used cell membranes of the transfected BHK cells; also called hCTR; hCT
T1 sequence (looked up): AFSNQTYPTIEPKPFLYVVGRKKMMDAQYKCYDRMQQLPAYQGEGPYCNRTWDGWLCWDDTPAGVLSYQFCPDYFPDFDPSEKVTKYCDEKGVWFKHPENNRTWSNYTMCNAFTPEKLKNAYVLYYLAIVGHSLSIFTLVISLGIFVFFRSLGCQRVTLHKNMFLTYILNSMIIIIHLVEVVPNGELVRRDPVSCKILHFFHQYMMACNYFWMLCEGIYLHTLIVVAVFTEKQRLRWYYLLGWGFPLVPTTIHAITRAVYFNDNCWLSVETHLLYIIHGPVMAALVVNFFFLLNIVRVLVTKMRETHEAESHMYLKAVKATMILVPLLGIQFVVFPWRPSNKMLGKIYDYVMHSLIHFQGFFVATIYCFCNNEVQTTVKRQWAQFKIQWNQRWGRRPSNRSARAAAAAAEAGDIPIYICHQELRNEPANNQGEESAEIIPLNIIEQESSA


Target: T1, human calcitonin receptor
Experiment: SPA radioligand competition (125I-calcitonin), membranes of BHK cells with human calcitonin receptor
In short: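 BHK hCTR membranes 35 ng/μL + SPA beads 0.05 mg/well; buffer 50 mM Hepes pH 7.4, 1 mM CaCl2, 5 mM MgCl₂, 0.1% OA, 0.02% Tween20. 120 min, 25° C., shaking. Scintillation count; IC50 by one-site binding competition.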

IC50 [nM]	Binder
15.3	K([AEEA-γGlu-C20 diacid])CNTATCATQRLANFLRHSSPNFGAIPSSTPVGSHTY-NH2 (disulfide 2-7; N-terminus assumed; SMILES CC[C@H](C)[C@H](NC(=O)[C@H](C)NC(=O)CNC(=O)[C@H](Cc1ccccc1)NC(=O)[C@H](CC(N)=O)NC(=O)[C@@H]1CCCN1C(=O)[C@H](CO)NC(=O)[C@H](CO)NC(=O)[C@H](Cc1c[nH]cn1)NC(=O)[C@H](CCCNC(=N)N)NC(=O)[C@H](CC(C)C)NC(=O)[C@H](Cc1ccccc1)NC(=O)[C@H](CC(N)=O)NC(=O)[C@H](C)NC(=O)[C@H](CC(C)C)NC(=O)[C@H](CCCNC(=N)N)NC(=O)[C@H](CCC(N)=O)NC(=O)[C@@H](NC(=O)[C@H](C)NC(=O)[C@@H]1CSSC[C@H](NC(=O)[C@@H](N)CCCCNC(=O)COCCOCCNC(=O)CC[C@H](NC(=O)CCCCCCCCCCCCCCCCCCC(=O)O)C(=O)O)C(=O)N[C@@H](CC(N)=O)C(=O)N[C@@H]([C@@H](C)O)C(=O)N[C@@H](C)C(=O)N[C@@H]([C@@H](C)O)C(=O)N1)[C@@H](C)O)C(=O)N1CCC[C@H]1C(=O)N[C@@H](CO)C(=O)N[C@@H](CO)C(=O)N[C@H](C(=O)N1CCC[C@H]1C(=O)N[C@H](C(=O)NCC(=O)N[C@@H](CO)C(=O)N[C@@H](Cc1c[nH]cn1)C(=O)N[C@H](C(=O)N[C@@H](Cc1ccc(O)cc1)C(N)=O)[C@@H](C)O)C(C)C)[C@@H](C)O, Synthetic analogue; also called compound 57)
9.63	K([AEEA-γGlu-C20 diacid])CNTATCATQRLANFLRHSSPNFGAIPSSTNVGPHTY-NH2 (disulfide 2-7; N-terminus assumed; SMILES CC[C@H](C)[C@H](NC(=O)[C@H](C)NC(=O)CNC(=O)[C@H](Cc1ccccc1)NC(=O)[C@H](CC(N)=O)NC(=O)[C@@H]1CCCN1C(=O)[C@H](CO)NC(=O)[C@H](CO)NC(=O)[C@H](Cc1c[nH]cn1)NC(=O)[C@H](CCCNC(=N)N)NC(=O)[C@H](CC(C)C)NC(=O)[C@H](Cc1ccccc1)NC(=O)[C@H](CC(N)=O)NC(=O)[C@H](C)NC(=O)[C@H](CC(C)C)NC(=O)[C@H](CCCNC(=N)N)NC(=O)[C@H](CCC(N)=O)NC(=O)[C@@H](NC(=O)[C@H](C)NC(=O)[C@@H]1CSSC[C@H](NC(=O)[C@@H](N)CCCCNC(=O)COCCOCCNC(=O)CC[C@H](NC(=O)CCCCCCCCCCCCCCCCCCC(=O)O)C(=O)O)C(=O)N[C@@H](CC(N)=O)C(=O)N[C@@H]([C@@H](C)O)C(=O)N[C@@H](C)C(=O)N[C@@H]([C@@H](C)O)C(=O)N1)[C@@H](C)O)C(=O)N1CCC[C@H]1C(=O)N[C@@H](CO)C(=O)N[C@@H](CO)C(=O)N[C@H](C(=O)N[C@@H](CC(N)=O)C(=O)N[C@H](C(=O)NCC(=O)N1CCC[C@H]1C(=O)N[C@@H](Cc1c[nH]cn1)C(=O)N[C@H](C(=O)N[C@@H](Cc1ccc(O)cc1)C(N)=O)[C@@H](C)O)C(C)C)[C@@H](C)O, Synthetic analogue; also called compound 58)
